Legend:
[1] = biological target: SARS-CoV-2 RBD wild type (SARS-CoV-2 (wild type)) (UniProt P0DTC2); test: flow cytometry bead binding; settings: 5'-hexynyl clicked to C-terminal azide of peptide LGKGDFR
[2] = biological target: RBD-hACE2 binding (Severe acute respiratory syndrome coronavirus 2, UniProt P0DTC2); settings: ELISA, 3 μM, n = 3 independent replicates
[3] = tested on: pseudotyped SARS-CoV-2; type: cell-based, SARS-CoV-2 (human hACE2-293T cells)

Substance | binding signal (RBD-binding fraction relative to R7-02) [1] | inhibition of RBD-hACE2 interaction [2] [%] | percentage of GFP-expressing infected cells over the total hACE2-293T cells [3] [%]
GGAAGAGATGGCGACCACACCAAATCTGAGTCTACCCCATGAAGGAGCTGATCCTGATGG [R7-03 hybrid ligand (LGKGDFR-DNA)] | 0.125 | – | –
GGAAGAGATGGCGACCTCCACAACCGCTGATCGACGCAGATCTTGTGGGTAGCTGATCCTGATGG [R7-01 hybrid ligand (LGKGDFR-DNA)] | 0.2 | – | –
LGKGDFR [LGKGDFR peptide] | – | 11.69 | 22.0

Reference: paper PMC9604513, “De novo selected hACE2 mimics that integrate hotspot peptides with aptameric scaffolds for binding tolerance of SARS-CoV-2 variants” (Science Advances, 2022)
